In the nanobody polyreactivity screen of Harvey et al. (2022):

Assay: yeast display, Sf9 membrane polyspecificity reagent, FACS + sequencing; frameworks hold sequencing errors
Procedure, shortened: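 Synthetic nanobody libraries on Saccharomyces cerevisiae BJ5465 were galactose-induced for 36–48 hours, stained 1 hour at 4 °C with 10% biotinylated, detergent-solubilized Sf9 membrane reagent and enriched on streptavidin microbeads. FACS then separated cells into low and high (top ~1%) gates by anti-HA (expression) and streptavidin (reagent binding) fluorescence. Genes were colony-PCR amplified, MiSeq 2 × 250 sequenced and CDR-length filtered. A clone's polyreactivity label is that of its gate of origin.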

Sequence | polyreactivity (PSR sort gate)
QVQLVESGGGLVHAGGSLRLSCAAAGFTFTYYTMGWYRKAPGKERELVAAITENGGSTYYADSVKWRFTISRDNAKNTVYLQMKSLKPEDPAVYYCNARVWDYGGHGYDYWGQGTQVTVSS | low polyreactivity
QVQLVESGGGLVHAGGSLRLSCAASGFIFFSNAMGWYRQAPGKERELVATISTSSGSTYADSVKGRFTNSRDNAKNTVYLQMNSLKPEDTAVYYCAADTQGYDYDYWGQGTQVTVSS | low polyreactivity
QVQLVESGGGLVHAGGSLRLSCAASGFIFPYYAMGWYRQAPGKERELVAAITSGGSTNYADSVKGRFTISRDNAKNTVYLQMNSLKPEDTAVYYCAKRLKRWSVYGRYDYWGQGTQVTVSS | high polyreactivity
QVQLVESGGGLVHAGGSLRLSCAASGFIFYYYTMGWYRQAPGKEREFVAAISSSGTITYYADSVKGRFTISRDNAKNTVYLQMNSLKPEDTAVYYCNAELYYPYEFWRFSGYDYWGQGTQVTVSS | low polyreactivity
QVQLVESGGGLVHAGGSLRLSCAASGFSFNTYAMGWYRQAPGKERELVADISSGGSTNYADSVKGRFTISRDNAKNTVFLQMNSLKPEDTAVYYCSADYYFLDWYDYWGQGTQVSVSS | low polyreactivity
QVQLVESGGGLVHAGGSLRLSCAASGFTFYYNDMGWYRQAPGKERELVAAIRWSGGNTYYADSVKGRFKISRDNAKNTVYLQMNSLKPEDTAVYYCSAGTQWYSQVYIYYYWGQGTQVTVSS | low polyreactivity
QVQLVESGGGLVHAGGSLRLSCAASGGIYWYYAMGWYRQAPGKERELVAAISITDGSTYYADSVKGRFTISRDKAKNTVYLQMNSLKPEDTAVYYCAAEEEEYIYDYWGQGTQVTVSS | high polyreactivity
QVQLVESGGGLVHAGGSLRLSCAASGIIFVLHAMGWYRQAPGQERELVASISGIGGSTYYADSEKGRFTISRDNAKNTVYLQMNSLKPEDTAVYYCAARGWLSRYGYWGHGTQVTVSS | high polyreactivity
QVQLVESGGGLVHAGGSLRLSCAASGIIFYLYAMGWYRQAPGKERELVAAISRRGVSTYYADSVKGRFTISRDNAKNTVYLQMNSLKTEDTAVYYCAAAGFGYTGEEYWGQGTQVTVSS | high polyreactivity
QVQLVESGGGLVHAGGSLRLSCAASGINFFPYAMGWYRQAPGKERELVASINISDSSTYYADSVKGRFTISRDNAKNTVYLQMNSLKPEDTAVYYCAADNRGDSWYWHGYWGQGTQVSVSS | low polyreactivity
QVQLVESGGGLVHAGGSLRLSCAASGLTFAYNTMGWYRQAPGKEREFVASISSSGGNTYYADSVKGRFTISRDNAKNTVYVQMNSLKPEDTAVYFCAAKKKYHYVASYKRFEYWGQGTQVTVSS | low polyreactivity
QVQLVESGGGLVHAGGSLRLSCAASGRIFNYYAMGWYRQAPGKERALVAAISSGGSTYYADSEKGRFTISRDNAKNTVYLQMHSLKPEDTAVDYCNRVPRGVSRQDDYWGQGTQVTVSS | high polyreactivity
QVQLVESGGGLVHAGGSLRLSCAASGRIFPSYAMGWYRQAPGKERELVAAISYSGASTYYADSVKGRFTISRDNAKNTVYLQMNSLKPEDTAVYYCATDHESVRVLVSSTSDYDYWGQGTQVTVSS | low polyreactivity
QVQLVESGGGLVHAGGSLRLSCAASGRIFRRYAMGWYRQAPGKERELVASISSGGSTNYADSLKGRFTISRDNAKNTVYLQMNSLNPEDTAVYYCNVYYGYFRSRYCYWGQGTQVTVSS | high polyreactivity
QVQLVESGGGLVHAGGSLRLSCAASGRIFTIYAMGWYRQAPGKERELVAAISDRGTRTYYADSVKGRFTISRDNAKNTVYLQMNSLKPEETAVYYCATDALYTYGYDYWGQGTQVTVSS | low polyreactivity
QVQLVESGGGLVHAGGSLRLSCAASGRIFYQYAMGWYRQAPGKERELVAAIRYRDDGTYYADSVKGRLTISRDNAKNTVYLQMNSLKPEDTAVYYCAGKQWGRYGYWGQGTQVTVSS | high polyreactivity
QVQLVESGGGLVHAGGSLRLSCAASGRILVDYAMGWYRQAPGKERELVAAITSTGGTTYYADSVKGRFTISRDNAKNTVYLQMNSLKPEDTAVYYCAAKRQDSWGGTYGYWGQGTQVTVSS | low polyreactivity
QVQLVESGGGLVHAGGSLRLSCAASGRISFYYALGWYRQAPGKERALVATISRGDITYYADSVKGRFTISRDNAKNTVYLQLNSLKPEDTAVYYCNARNNYWWYGPGYVYWGQGTQVTVSS | low polyreactivity
QVQLVESGGGLVHAGGSLRLSCAASGRTFASYAIGWYRQAPGKERELVARISKSGGSTYYADSVKGRFTISRDNAKNTVYLQMNSLKPEDTAVYYCAATRYPYLYRSEVGSDYWGQGTQVTVSS | low polyreactivity
QVQLVESGGGLVHAGGSLRLSCAASGRTFIRYAMGWYIQAPGKERQLVAAISSSGGSTYYADSVKGRFTISRDNAKNTVYLQMNSLKPEDTAVYYCNAYVYYSHEDDYWGQGTQVTVSS | high polyreactivity
QVQLVESGGGLVHAGGSLRLSCAASGRTFKYYGMGWYREAPGKERELVATISRSSSRTYYADSVKGRFTISRDNAKNTVYLQMNSLKPEDTAVYYCAADRWGARRKQYDENGYWGQGTQVTVSS | high polyreactivity
